Laboratory results reported in patent US20190022241A1 (AbbVie / Abbott, published 2019).

T1: human SEZ6L ECD-His (human, UniProt Q9BYH1 29-955)
T1 construct: whole entry named
T1 sequence: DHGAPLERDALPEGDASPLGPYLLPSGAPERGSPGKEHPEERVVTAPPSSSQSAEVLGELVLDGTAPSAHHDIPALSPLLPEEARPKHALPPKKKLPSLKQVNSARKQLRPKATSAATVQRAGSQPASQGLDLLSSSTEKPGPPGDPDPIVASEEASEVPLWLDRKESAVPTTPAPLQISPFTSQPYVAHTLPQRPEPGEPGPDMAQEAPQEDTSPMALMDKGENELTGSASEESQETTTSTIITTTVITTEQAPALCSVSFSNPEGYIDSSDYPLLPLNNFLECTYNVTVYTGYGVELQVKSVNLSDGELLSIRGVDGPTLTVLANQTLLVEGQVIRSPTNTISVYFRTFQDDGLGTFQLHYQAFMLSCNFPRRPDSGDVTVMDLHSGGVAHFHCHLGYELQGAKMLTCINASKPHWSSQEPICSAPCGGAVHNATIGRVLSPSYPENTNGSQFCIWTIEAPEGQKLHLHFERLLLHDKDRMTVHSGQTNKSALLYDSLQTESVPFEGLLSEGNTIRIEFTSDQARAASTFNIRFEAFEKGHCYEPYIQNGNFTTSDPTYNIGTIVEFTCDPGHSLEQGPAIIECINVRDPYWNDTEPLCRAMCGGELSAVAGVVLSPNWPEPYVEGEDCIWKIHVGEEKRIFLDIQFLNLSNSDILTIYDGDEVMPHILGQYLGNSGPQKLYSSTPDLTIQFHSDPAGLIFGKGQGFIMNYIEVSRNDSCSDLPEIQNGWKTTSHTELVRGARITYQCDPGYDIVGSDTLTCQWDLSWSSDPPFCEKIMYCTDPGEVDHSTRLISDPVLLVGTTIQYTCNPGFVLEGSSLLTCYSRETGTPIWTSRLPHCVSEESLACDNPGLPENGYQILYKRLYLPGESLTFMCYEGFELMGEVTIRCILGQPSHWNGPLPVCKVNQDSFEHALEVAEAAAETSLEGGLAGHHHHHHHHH

T2: extracellular domain of cynomolgus SEZ6 on yeast (cynomolgus, UniProt Q53EL9 23-925 (human entry))
T2 construct: yeast display; the whole entry is named; also called cSEZ6; cynomolgus SEZ6 ECD
T2 chain: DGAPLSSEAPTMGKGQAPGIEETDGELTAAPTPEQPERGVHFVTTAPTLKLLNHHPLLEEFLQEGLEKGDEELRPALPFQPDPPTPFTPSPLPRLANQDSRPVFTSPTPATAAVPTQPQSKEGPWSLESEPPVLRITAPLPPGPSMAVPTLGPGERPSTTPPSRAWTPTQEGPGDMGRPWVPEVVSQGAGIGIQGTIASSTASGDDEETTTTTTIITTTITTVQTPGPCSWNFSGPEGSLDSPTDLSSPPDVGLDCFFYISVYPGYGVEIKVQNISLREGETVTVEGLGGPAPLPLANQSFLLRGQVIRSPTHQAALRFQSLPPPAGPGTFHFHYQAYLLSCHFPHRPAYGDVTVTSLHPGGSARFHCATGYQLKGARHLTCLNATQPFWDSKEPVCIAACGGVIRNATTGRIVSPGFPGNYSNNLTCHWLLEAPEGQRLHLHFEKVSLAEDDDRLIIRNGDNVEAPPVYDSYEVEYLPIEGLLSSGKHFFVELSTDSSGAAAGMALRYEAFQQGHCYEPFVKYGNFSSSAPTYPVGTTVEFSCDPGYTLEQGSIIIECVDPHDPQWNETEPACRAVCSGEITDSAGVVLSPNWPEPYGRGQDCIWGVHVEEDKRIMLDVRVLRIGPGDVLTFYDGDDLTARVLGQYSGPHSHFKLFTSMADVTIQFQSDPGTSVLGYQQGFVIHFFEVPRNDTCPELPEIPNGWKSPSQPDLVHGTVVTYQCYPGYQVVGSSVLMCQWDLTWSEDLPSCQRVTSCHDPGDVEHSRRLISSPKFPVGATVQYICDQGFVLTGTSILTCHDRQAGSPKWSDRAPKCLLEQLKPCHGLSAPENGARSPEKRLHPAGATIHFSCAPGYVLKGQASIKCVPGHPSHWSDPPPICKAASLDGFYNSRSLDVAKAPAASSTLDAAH

T3: rat SEZ6 on RIN-m5F cells (rat, UniProt Q7TSK2 20-991 (mouse entry))
T3 construct: endogenous on RIN-m5F cells; also called rSEZ6
T3 chain: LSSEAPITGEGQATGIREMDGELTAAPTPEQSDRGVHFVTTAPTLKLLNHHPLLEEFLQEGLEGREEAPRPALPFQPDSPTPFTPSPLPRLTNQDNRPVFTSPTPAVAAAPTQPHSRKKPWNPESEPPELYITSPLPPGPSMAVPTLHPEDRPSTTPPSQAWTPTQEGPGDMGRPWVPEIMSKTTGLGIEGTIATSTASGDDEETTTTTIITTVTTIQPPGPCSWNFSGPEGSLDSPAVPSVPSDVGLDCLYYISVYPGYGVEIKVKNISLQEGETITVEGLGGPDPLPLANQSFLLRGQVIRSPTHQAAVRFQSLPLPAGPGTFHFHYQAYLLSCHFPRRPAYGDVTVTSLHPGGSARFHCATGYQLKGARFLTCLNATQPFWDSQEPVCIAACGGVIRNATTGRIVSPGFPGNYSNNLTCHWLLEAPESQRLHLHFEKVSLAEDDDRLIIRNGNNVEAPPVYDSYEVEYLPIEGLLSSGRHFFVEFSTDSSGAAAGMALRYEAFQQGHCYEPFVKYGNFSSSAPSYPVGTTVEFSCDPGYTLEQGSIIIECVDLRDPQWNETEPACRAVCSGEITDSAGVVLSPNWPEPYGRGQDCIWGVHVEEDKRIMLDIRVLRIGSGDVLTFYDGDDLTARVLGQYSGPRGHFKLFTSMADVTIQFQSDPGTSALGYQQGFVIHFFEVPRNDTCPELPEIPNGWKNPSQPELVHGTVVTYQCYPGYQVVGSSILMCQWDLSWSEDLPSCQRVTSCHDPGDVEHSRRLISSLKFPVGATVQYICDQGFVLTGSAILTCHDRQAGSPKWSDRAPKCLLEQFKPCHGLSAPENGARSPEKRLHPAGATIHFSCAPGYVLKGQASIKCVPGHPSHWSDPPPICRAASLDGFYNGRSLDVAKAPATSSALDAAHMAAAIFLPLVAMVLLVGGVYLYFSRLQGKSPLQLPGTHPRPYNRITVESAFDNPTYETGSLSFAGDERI

T4: rSEZ6-ECD-His (rat, UniProt Q7TSK2 20-922 (mouse entry))
T4 construct: the whole entry is named; also called rat recombinant SEZ6-His; rat SEZ6 ECD
T4 chain: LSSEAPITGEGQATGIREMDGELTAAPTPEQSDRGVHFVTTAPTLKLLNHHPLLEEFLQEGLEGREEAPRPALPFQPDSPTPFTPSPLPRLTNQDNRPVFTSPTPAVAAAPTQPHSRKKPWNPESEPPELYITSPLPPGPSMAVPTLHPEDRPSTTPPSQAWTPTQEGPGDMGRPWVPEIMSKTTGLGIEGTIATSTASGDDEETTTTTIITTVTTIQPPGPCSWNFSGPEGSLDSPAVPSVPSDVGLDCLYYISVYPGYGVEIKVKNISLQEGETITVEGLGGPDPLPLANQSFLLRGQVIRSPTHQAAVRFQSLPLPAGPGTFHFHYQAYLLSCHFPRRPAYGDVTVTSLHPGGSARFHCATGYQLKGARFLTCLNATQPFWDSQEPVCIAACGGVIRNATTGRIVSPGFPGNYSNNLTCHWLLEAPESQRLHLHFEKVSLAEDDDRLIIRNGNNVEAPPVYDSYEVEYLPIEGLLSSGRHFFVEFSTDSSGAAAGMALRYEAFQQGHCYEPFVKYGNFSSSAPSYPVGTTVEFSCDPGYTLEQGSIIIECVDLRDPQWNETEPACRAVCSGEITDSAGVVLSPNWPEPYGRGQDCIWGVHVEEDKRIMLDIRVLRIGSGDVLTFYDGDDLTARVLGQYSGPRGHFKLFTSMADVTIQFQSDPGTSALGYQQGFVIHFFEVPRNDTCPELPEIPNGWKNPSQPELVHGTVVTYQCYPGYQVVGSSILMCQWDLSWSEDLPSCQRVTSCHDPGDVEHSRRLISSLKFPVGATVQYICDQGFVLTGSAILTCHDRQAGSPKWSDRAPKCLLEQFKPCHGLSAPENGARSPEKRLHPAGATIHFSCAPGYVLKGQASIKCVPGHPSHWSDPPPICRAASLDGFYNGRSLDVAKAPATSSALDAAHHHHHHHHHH

T5: SEZ6 CUB Domain 1 (aa 397-508) on yeast (human, UniProt Q53EL9 416-527)
T5 construct: yeast display
T5 sequence: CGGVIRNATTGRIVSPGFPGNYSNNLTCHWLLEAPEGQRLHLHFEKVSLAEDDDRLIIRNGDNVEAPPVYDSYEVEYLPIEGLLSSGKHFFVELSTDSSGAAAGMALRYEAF

B1: SC17.46 (antibody, V domains shown)
VH: QVQLQQPGAELVKPGASMKLSCKASGYTFTSYWINWVKQRPGQGLEWIGNIFPDTTTTNYNEKFKSKATLTVDTSSSTAYMQLSSLTSDDSAVYYCAREYYDGTYDAMDYWGQGTSVTV
VL: SFVMTQTPKFLLVSAGDRVTITCKASQSVNNDVAWYQQKPGQSPKLLIYYASNRYTGVPDRFTGSGYGTDFTFTISTVQAEDLAVYFCQQDYSSPRTFGGGTKLEIK
notes: murine mAb
B2: SC17.42 (antibody, V domains shown)
VH: DVKLVESGGGLVRPGGSLKLSCAASGFTFSRYTMSWVRQTPEKRLEWAATINSGGSNTYYPDSVKGRFTISRDNAKNTLFLQMSSLKSEDTAMYYCTNGNHWGQGTTLTVSS
VL: ENVLTQSPAIMSASPGEKVTMTCSASSSVNYMYWYQQKSSTSPKLWIYDTSKLTSGVPGRFSGSGSGNSYSLTISNMEAEDVATYYCFQGSGYPLTFGSGTKLEIK
notes: murine mAb
B3: SC17.76 (antibody, V domains shown)
VH: EVQLVESGGDLVKPGGSLKLSCVASGFTFSSYGMSWVRQTPDKRLEWVATISSGGTFTYYPDSVKGRFTVSRDNAKNTLYLQMSSLKSEDTAMYYCSRHGWGWGQGTLVTVSA
VL: DIVITQDELSNPVTSGESVSISCRSSKSLLYKDGKTYLNWFLQRPGQSPQLLIYLMSTRASGVSDRFSGSGSGTDFTLEISRVKAEDVGVYYCQQLVEYPRTFGGGTKLEIK
notes: murine mAb
B4: SC17.122 (antibody, V domains shown)
VH: EVHLVESGGDLVKPGGSLKLSCAASGFTFSSYGMSWVRQTPDKRLEWVATISSGGTYTYYPDSVKGRFTISRDNAKNTLYLQMSSLKSEDTAMYYCSRHGWGWGQGTLVTVSA
VL: DIVITQDDLSNPVTSGESVSISCRSSKSLLYKDGKTYLNWFLQRPGQSPQLLIYLMSTRASGVSDRFSGSGSGTDFTLEISRVKAEDVGVYYCQQLVEYPRTFGGGTKLEIK
notes: murine mAb
B5: SC17.72 (antibody, V domains shown)
VH: EVQLVESGGGLVKPGGSLKLSCAASGFTFSSYGMSWVRQTPEKRLEWVAAINSNGGSTYYPDTVKGRLTISRDNGKNTLYLQMSSLRSEDTALYYCVRDDGYYVFFAYWGQGTLVTVSA
VL: DIQMTQTTSSLSASLGDRVTISCSASQGISNYLNWYQQKPDGTVKLLIYYTSSLHSGVPSKFSGSGSGTDYSLTISNLEPEDIATYYCQQYSKLPYTFGGGTKLEIK
notes: murine mAb

Experiments:
[1] = target: T6, mouse SEZ6 on Neuro2a cells (mouse, UniProt Q7TSK2 20-991); test: flow cytometry on Neuro2a cells expressing mouse SEZ6
T6 construct: endogenous on Neuro2a cells; also called murine SEZ6; mSEZ6

human SEZ6L ECD-His = target: T1, human SEZ6L ECD-His; test: ELISA on plates coated with SEZ6L protein
[2] = target: T7, SEZ6 Sushi Domain 1 (amino acids 336-395) on yeast (human, UniProt Q53EL9 355-414); test: yeast display, flow cytometry;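 further: antibody binding to individual SEZ6 domains displayed on yeast, measured by flow cytometry, antibody at 50 nM purified or hybridoma supernatant diluted 1:2, 90 min on ice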
T7 construct: yeast display

[3] = target: T2, extracellular domain of cynomolgus SEZ6 …; test: flow cytometry on yeast displaying the extracellular domain of cynomolgus SEZ6
human SEZ6L2 ECD-His = target: T8, human SEZ6L2 ECD-His (human, UniProt Q6UXD5 28-843); test: ELISA on plates coated with SEZ6L2 protein
T8 construct: whole entry named

[4] = target: T3, rat SEZ6 on RIN-m5F cells; test: flow cytometry on RIN-m5F cells expressing rat SEZ6, verified by BLI or SPR on rat SEZ6-His
hSEZ6-ECD-His = target: T9, hSEZ6-ECD-His (human, UniProt Q53EL9 20-925); test: bio-layer interferometry (ForteBio RED) or surface plasmon resonance (Biacore 2000) on human SEZ6-His; the table does not say which; column Hu Affinity (Kd, nM)
T9 construct: the whole entry is named; also called recombinant SEZ6-His; human recombinant SEZ6-His

rSEZ6-ECD-His = target: T4, rSEZ6-ECD-His; test: bio-layer interferometry (ForteBio RED) or surface plasmon resonance (Biacore 2000) on rat SEZ6-His; the table does not say which; column Rat XR (Kd, nM)
[5] = target: T5, SEZ6 CUB Domain 1 (aa 397-508) on yeast; test: yeast display, flow cytometry;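 further: antibody binding to individual SEZ6 domains displayed on yeast, measured by flow cytometry, antibody at 50 nM purified or hybridoma supernatant diluted 1:2, 90 min on ice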
[6] = target: T10, SEZ6 Sushi Domain 3 (amino acids 690-748) on yeast (human, UniProt Q53EL9 709-767); test: yeast display, flow cytometry;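 further: antibody binding to individual SEZ6 domains displayed on yeast, measured by flow cytometry, antibody at 50 nM purified or hybridoma supernatant diluted 1:2, 90 min on ice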
T10 construct: yeast display

T8 sequence (Q6UXD5 other isoform, or with tags, fused parts or gaps): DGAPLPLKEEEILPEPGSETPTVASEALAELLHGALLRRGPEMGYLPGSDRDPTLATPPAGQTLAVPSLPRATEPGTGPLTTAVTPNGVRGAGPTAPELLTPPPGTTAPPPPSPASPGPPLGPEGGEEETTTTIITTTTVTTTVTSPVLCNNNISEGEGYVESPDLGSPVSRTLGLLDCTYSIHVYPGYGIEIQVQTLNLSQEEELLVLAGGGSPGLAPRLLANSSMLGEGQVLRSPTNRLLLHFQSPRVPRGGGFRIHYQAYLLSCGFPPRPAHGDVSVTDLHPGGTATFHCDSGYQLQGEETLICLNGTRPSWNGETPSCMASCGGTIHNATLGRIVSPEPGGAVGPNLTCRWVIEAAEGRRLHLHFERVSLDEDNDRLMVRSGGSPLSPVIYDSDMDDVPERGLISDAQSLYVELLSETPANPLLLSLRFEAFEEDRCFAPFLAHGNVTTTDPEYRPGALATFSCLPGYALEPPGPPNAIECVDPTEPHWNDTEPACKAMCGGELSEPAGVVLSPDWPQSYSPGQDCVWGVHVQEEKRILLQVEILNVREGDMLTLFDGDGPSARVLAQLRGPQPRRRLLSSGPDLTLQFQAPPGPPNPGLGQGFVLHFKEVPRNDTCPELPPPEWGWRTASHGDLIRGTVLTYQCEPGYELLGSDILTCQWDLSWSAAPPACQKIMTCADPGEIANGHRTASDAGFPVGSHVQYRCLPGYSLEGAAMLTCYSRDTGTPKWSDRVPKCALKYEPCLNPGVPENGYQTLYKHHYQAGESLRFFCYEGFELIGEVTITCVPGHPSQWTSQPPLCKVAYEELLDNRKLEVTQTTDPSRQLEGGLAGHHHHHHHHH

binding result (human SEZ6L ECD-His) | binding result [3] | binding result (human SEZ6L2 ECD-His) | binding result [5] | also measured | Binder
no binding (tested: 1 µg/mL) | no binding (tested: 5 µg/mL) | no binding (tested: 1 µg/mL) |  | binding result [1]: no binding (tested: 5 µg/mL); binding result [2]: binds; binding result [4]: no binding (tested: 5 µg/mL) | B1
no binding (tested: 1 µg/mL) | no binding (tested: 5 µg/mL) | no binding (tested: 1 µg/mL) |  | Kd (hSEZ6-ECD-His): 2.7 nM; Kd (rSEZ6-ECD-His): 3 nM | B2
 |  |  | binds |  | B3
 |  |  | binds |  | B4
 |  |  |  | binding result [6]: binds | B5
